{
  "source": "patent US20020022718A1",
  "about": "“Genes identified as required for proliferation of E. coli” (priority 1999, published 2002)",
  "molecules": {"B1": {"name": "EcXA142: antisense clone insert to E. coli rpmJ, rpsM (nucleic acid, listed as Escherichia coli)", "antisense": "TGCGATTACGGCATGCTTATGATCAGGAATGTTAATGCCTGCTATACGGGCCACTATGCACTCCTACTATTTAATATGTACGTTCCATGCTGAAAAGCCCGTTTTCAGGATACTCAAATGGAAACGCACAGACATACAAAAGATTGGCTGGCTAATCTAGCCAGCTCAACCCAACTTTGCAAGAAAAATATGCGAAAAAATCAGCCTTGGCGCTGTTTATGCTTCGGCTCGGCACTGCAAATCACACGGATGACA"}, "B2": {"name": "EcXA143: antisense clone insert to E. coli b2846 (nucleic acid, listed as Escherichia coli)", "antisense": "AACGTAAAACTTTACGTAAATTAACATGGTTAACATTTATGCCACTATTGTTTGTAAATTCATATTTCGTAATGCTTCTGAATTTTTCGTGTGATGGTTTTAAATACTATGGTGTTTACTCTTGAGGGGACGGCCTATTTATAAAATACGGACATTTCAATAAATGCCCGTATAAACAGAGTATGATTCTGGCTGGTCGTTGAGTATCAATGTTGGACCGAATGTGAACGAATAAATAATTCGTTTATTTTACCACCCATTCTCTTTTCGATTCGTTGCTTGTACGCGTAGATGCTACGGATATCCATATCCAGAACTTCAGCAATCTGATATGGATTATAACCAGAAACCATATACCCCATTATGGTGAATTCCATCTGAGTTAATGT"}, "B3": {"name": "EcXA145: antisense clone insert to E. coli thyA (nucleic acid, listed as Escherichia coli)", "antisense": "TCGAAGAATTTAACGGAGGGTAAAAAAACCGACGCACACTGGCGTCGGCTCTGGCAGGATGTTTCGTAATTAGATAGCCACCGGCGCTTTAATGCCCGGATGCGGATCGTAGCCTTCAATCTCAAAGTCTTCGAAACGGTAGTCGAAGATGGATTCGGGTTTACGTTTGATAATCAACTTCGGC"}, "B4": {"name": "EcXA146: antisense clone insert to E. coli pstB (nucleic acid, listed as Escherichia coli)", "antisense": "GTAGAAGTTCAAATTACGAACCTGAATTTTACTCGGGGCAGTTTCAACCATACTCATTGCAATCTTTTCCTCATCGTGCCTGATGCACTTCGCTAATCAGGCTTACCGTAGGCCGGATCAGG"}, "B5": {"name": "EcXA147: antisense clone insert to E. coli b1111 (nucleic acid, listed as Escherichia coli)", "antisense": "TAAATTCCGCGTATAGCGTGGGCGCTTTGGCTCCGGTCGCTTCGACGAGGTCCGCAAGAGAAGTCGCTTCATAACCGTGTTGCCAGAACAATTTCATGGCCTTATCAAGCGCGGCATCCCTGTCGAACACTTTTGGGCGGCCACGGCTTTTTTTTACACATTG"}, "B6": {"name": "EcXA148: antisense clone insert to E. coli rffM (nucleic acid, listed as Escherichia coli)", "antisense": "GCAAATGTTTTCGTAATTCAGGAGAAATGGCAAATAAAGCATTAAAAATTTGAATGCTTTGTGTAATAAAAAAGCAGACAGGCGACGGAGTGACCACTCCGTCGCTTTACAAAGAGAGGAAAATCATAGGTTGCCGGTGTAGTGCCAGCGTAAATAACGCA"}, "B7": {"name": "EcXA150: antisense clone insert to E. coli spoT (nucleic acid, listed as Escherichia coli)", "antisense": "CCGGGGCTGACGTGGGCGATAATCGGGTCGCCAGGAATAGGGCGGCAGCATTTCGCAAAGGTGATCAGCACGCCATCGGCACCTTTAATGGGCAGATGTCCGTGGCTTTGGGTTGCCGGTGGAATGGAGGCGTCCCCATGTTGCAGATTTTTCGCGACCACCACGCTCATTGCGTTACCA"}, "B8": {"name": "EcXA151: antisense clone insert to E. coli dctA (nucleic acid, listed as Escherichia coli)", "antisense": "TGTCGAGCATACGCGGCAGCGCCGACTCGGAAGATGAAGTCCCCAGTACAATCAGCAGTTCTTCACGGATGTAGCGGATAAATTTGAAGATACTGAAACCAGTCGCTTTAGCGATTGAACCCAATACCAGCACCACAAACAGGATACAGGTAATGTAGAAACAGATAATCAGCTGCCCCAGTTGCACCAGTGTGCCGACGCCGTATTTACCGATGGTAAACGCCATTGCCCCGAACGCACCAATAGGTGCCAGA"}, "B9": {"name": "EcXA152: antisense clone insert to E. coli bcr (nucleic acid, listed as Escherichia coli)", "antisense": "AGCTGATCGATGGTGTTTGCCAACGCACACGCCACCGCGGCGGCGGCAAACACCANCGTACCGCCGAGCACCACCGGCTTACGCCCGAAGCTGTCTGCCATCGGCCCGTAGATTAACTGCCCCAACGCAAAGCCCAGAATATAAGTACTGAGGGTCATCTGCGTACTGCCCGNCGGTACGCCAAACTGCGCTGAAATTACCGGTAGCGCGGGCAGATACATATCAATCGACAGCGGCATCAACATGGCCAGCAGGCCAAGGATAAAAACAATAGCAAACGACGAATGCTGTCGGGTGGTC", "modifications": "misc_feature (1)...(300): n = A,T,C or G", "notes": "antisense clone insert to E. coli bcr"}, "B10": {"name": "EcXA153: antisense clone insert to E. coli yjbI (nucleic acid, listed as Escherichia coli)", "antisense": "CAACATCTCATGTCTGGATTTGTAGATATACGTGGAATTCCAATTGGTATCTTTTGTAGGATTCAACATATCATGTAAGCGCTGGGAGCTTACCACCATAACTGGCCCATCATCGACTGAGGAGAACAGGATAAAGATATTATCGTTTCGTGTTAATTCATTCGTGTTAAAGGTTCTTAAATTATCTTCAGTTTCTATAAATATAGG"}, "B11": {"name": "EcXA154: antisense clone insert to E. coli b1983 (nucleic acid, listed as Escherichia coli)", "antisense": "TTCTGTAATCAGAAAAAGAAGAACTGGAATTTTAATAAATATTATTTCTCTGGGAACGGGGGGGTATAATCAATATGACGAGTTGAATATTATATTTTTTATAAGAATTATATGAGATTAAAGAAATCTGCCGTAAAGACAGATTTCTTTAAAAGATAATTAGAGATTTGCGACGTTATGATAAACTTTTTGTACATCGTCGTCATCTTCAAG"}, "B12": {"name": "EcXA156: antisense clone insert to E. coli yihN (nucleic acid, listed as Escherichia coli)", "antisense": "AAATAGACCGGCATACTTTCGTGCGGCAGCATAATCAACAGTACGAGCGCAGCGGTACTAATGATAAAGGTGTAGCATAGATATTTACTTGGCGATTTCAGGATCTTATCTGAAATCATGCCACCAATCGGTCCACCAATCATTTTCAGACAGT"}, "B13": {"name": "EcXA157: antisense clone insert to E. coli rpsC, rplV (nucleic acid, listed as Escherichia coli)", "antisense": "TCCTTAGTCAGGTACTGACGTACTTTAAAATCGCTGTCCAGGTTGTCAGCGAATTCTTTGGTGTTCGCAAACCAGGTAGAGTTCCATGGTTTTACAATACCCAGGCGAATACCATTAGGATGTACTTTCTGACCCATTGCTAGTCTCCAGAGTCTCAGCGATCGGACACAACCACAGTGATGTGGCTGGTG"}, "B14": {"name": "EcXA158: antisense clone insert to E. coli b2519 (nucleic acid, listed as Escherichia coli)", "antisense": "GCTGGTGCCCGTTTTCCATGCCAGTGGGGCGACGCGCGGCAAGGCACTATCCGGCAAGGGTTGCGCTTCATCAGCCATAATCCGGCGAATGATCCACGCCGCCCCCGACGACATTAAAGGCCGTTCAAGCAGCGGATCGTCAGGCTGTAAGCGCAATTTGCCTGCCTTGCCGTGGCGAGCAAACGCGGTA"}, "B15": {"name": "EcXA159: antisense clone insert to E. coli b0482 (nucleic acid, listed as Escherichia coli)", "antisense": "AAAAAATGAAATTCCTCTTTGACGGGCCAATAGCGATATTGGCCATTTTTTTAGCGCAACATTTGCGGCAAATTCCCTTCTCCATACAGGTGTAGTGCACCGACCGCGACCACATATCGCCCCGGCGGCATGGCGCGTAATTTATCCCGCCAGGCGAGATTTCGCTGATGCATCAGCACATCGTACAGCGACTGACTGAACGTATTGGGCAGCGTTATATCATTATTTTGCGGCGGTGCATTCAGCCACCAGCTCATCATTTGTTGCAGCAACCGTGCGTTGGTATGCCAGTGGGTCAGCGTATCGTCCAGCAGCGCCAGTCCTTTGTCAGGGAGCTGGAGCAACATGGCAATCTGGTTTTCAGCCCCTTCCAGTTCAATCACGGGTTTATGTTGTTGCTTC"}},
  "data": [
    {"system": "Klebsiella pneumoniae", "assay": "Growth inhibition by induced E. coli antisense RNA in Klebsiella pneumoniae", "assay_type": "cell-based", "parameters": "key: +: a positive in Table V below means that at least 10 fold more cells were required to observe a colony on the induced plate than on the non-induced plate; −: If there was no effect of antisense RNA expression in a microorganism, the clone is minus in Table V below", "conditions": "antisense RNA expression induced with IPTG, serial dilution plating", "description": "To study the effects of transcriptional induction in liquid medium, growth curves were carried out by back diluting cultures 1:200 into fresh media with or without 1 mM IPTG and measuring the OD450 every 30 minutes (min). To study the effects of transcriptional induction on solid medium, 10^2, 10^3, 10^4, 10^5, 10^6, 10^7 and 10^8 fold dilutions of overnight cultures were prepared. Aliquots of from 0.5 to 3 μl of these dilutions were spotted on selective agar plates with or without 1 mM IPTG. After overnight incubation, the plates were compared to assess the sensitivity of the clones to IPTG.\nMolecule No. EcXA190, encoding a portion of the b3052 gene of Escherichia coli, was either transformed directly into Enterobacter cloacae, Salmonella typhimurium and/or Klebsiella pneumoniae or subcloned into an expression vector functional in these species and the subclones transformed into these organisms. Suitable expression vectors are well known in the art. These expression vectors were introduced into Enterobacter cloacae, Salmonella typhimurium and/or Klebsiella pneumoniae cells that were then assayed for growth inhibition according to the method of Example 1. After growth in liquid culture, cells were plated at various serial dilutions and a score determined by calculating the log difference in growth for INDUCED vs. UNINDUCED antisense RNA expression as determined by the maximum 10 fold dilution at which a colony was observed. If there was no effect of antisense RNA expression in one organism, the clone is given a score of zero “0” in that organism. In contrast, a score of “8” means that 10^8 times more cells were required to observe a colony formed on the induced state than in the non-induced state under the conditions used and in that organism.\nIn addition, the above methods were validated using other antisense nucleic acids which inhibit the growth of E. coli which were identified using methods similar to those described above. Expression vectors which inhibited growth of E. coli upon induction of antisense RNA expression with IPTG were transformed directly into Enterobacter cloacae, Klebsiella pneumonia or Salmonella typhimurium. The transformed cells were then assayed for growth inhibition according to the method of Example 1. After growth in liquid culture, cells were plated at various serial dilutions and a score determined by calculating the log difference in growth for INDUCED vs. UNINDUCED antisense RNA expression as determined by the maximum 10 fold dilution at which a colony was observed. If there was no effect of antisense RNA expression in a microorganism, the clone is minus in Table V below. In contrast, a positive in Table V below means that at least 10 fold more cells were required to observe a colony on the induced plate than on the non-induced plate under the conditions used and in that microorganism.", "values": [
      {"molecule": "B1", "Sensitivity of K. pneumoniae to antisense nucleic acid (growth inhibition, induced vs. uninduced)": "−"},
      {"molecule": "B2", "Sensitivity of K. pneumoniae to antisense nucleic acid (growth inhibition, induced vs. uninduced)": "−"},
      {"molecule": "B3", "Sensitivity of K. pneumoniae to antisense nucleic acid (growth inhibition, induced vs. uninduced)": "−"},
      {"molecule": "B4", "Sensitivity of K. pneumoniae to antisense nucleic acid (growth inhibition, induced vs. uninduced)": "−"},
      {"molecule": "B5", "Sensitivity of K. pneumoniae to antisense nucleic acid (growth inhibition, induced vs. uninduced)": "−"},
      {"molecule": "B6", "Sensitivity of K. pneumoniae to antisense nucleic acid (growth inhibition, induced vs. uninduced)": "−"},
      {"molecule": "B7", "Sensitivity of K. pneumoniae to antisense nucleic acid (growth inhibition, induced vs. uninduced)": "−"},
      {"molecule": "B8", "Sensitivity of K. pneumoniae to antisense nucleic acid (growth inhibition, induced vs. uninduced)": "−"},
      {"molecule": "B9", "Sensitivity of K. pneumoniae to antisense nucleic acid (growth inhibition, induced vs. uninduced)": "−"},
      {"molecule": "B10", "Sensitivity of K. pneumoniae to antisense nucleic acid (growth inhibition, induced vs. uninduced)": "−"},
      {"molecule": "B11", "Sensitivity of K. pneumoniae to antisense nucleic acid (growth inhibition, induced vs. uninduced)": "−"},
      {"molecule": "B12", "Sensitivity of K. pneumoniae to antisense nucleic acid (growth inhibition, induced vs. uninduced)": "−"},
      {"molecule": "B13", "Sensitivity of K. pneumoniae to antisense nucleic acid (growth inhibition, induced vs. uninduced)": "−"},
      {"molecule": "B14", "Sensitivity of K. pneumoniae to antisense nucleic acid (growth inhibition, induced vs. uninduced)": "−"},
      {"molecule": "B15", "Sensitivity of K. pneumoniae to antisense nucleic acid (growth inhibition, induced vs. uninduced)": "−"}
    ]}
  ]
}
